Test results taken from paper doi:10.1101/403360.

Experiments:
[1] = molecular target: wild type GluN2A C-terminus peptide (…); test: SPR
[2] = molecular target: wild type GluN2B C-terminus peptide (…); test: SPR

## isolated FRMPD2 PDZ2 domain (from UniProt A0A140LI67 934-1027) (domain or fragment)
[1]
  Kd: 0.31 µM
[2]
  Kd: 250 µM
